# Source: patent US20230349919A1 (Regeneron, published 2023)
# Numbering of substitutions follows the chain as printed.
# T1: Der p 2 (house dust mite, UniProt P49278 18-146)
# T1 construct: Also used oligonucleotide-barcoded for cell staining
# T1 sequence (looked up): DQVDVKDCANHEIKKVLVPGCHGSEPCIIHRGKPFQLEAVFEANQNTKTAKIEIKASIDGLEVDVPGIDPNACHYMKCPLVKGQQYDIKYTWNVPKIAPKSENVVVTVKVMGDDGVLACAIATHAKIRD
# T2: Ole e 1 (olive, UniProt P19963 1-145)
# T2 construct: Also used oligonucleotide-barcoded for cell staining; also called olive allergen; negative control allergen
# T2 sequence (looked up): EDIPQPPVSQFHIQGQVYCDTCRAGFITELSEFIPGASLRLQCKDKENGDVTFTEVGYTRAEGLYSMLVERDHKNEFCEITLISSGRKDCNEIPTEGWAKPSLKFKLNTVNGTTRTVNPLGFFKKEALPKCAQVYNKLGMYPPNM
# B1: Table 1 Line # 5 antibody (BM_Plasma_cell) (antibody, V domains shown)
# VH: QVQLVQSGAEVKKPGASVKVSCKASGYTFTGYYIYWVRQAPGQGLEWMGWINPNSGGTNYAQKFQGRVTMTRDTSISTVYMELSRLRSDDAAVYYCAKRKRGLDGWGQGTTVTVSS
# VL: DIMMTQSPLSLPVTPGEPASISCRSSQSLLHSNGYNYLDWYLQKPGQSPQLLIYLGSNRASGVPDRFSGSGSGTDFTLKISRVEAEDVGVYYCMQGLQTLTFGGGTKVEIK
# notes: Cloned with human IgG4/human Igk constants for Kd; barcode counts are of the source cell's own IgG
# B2: Table 1 Line # 12 antibody (BM_Plasma_cell) (antibody, human IgG4, V domains shown)
# VH: QVQLVESGGGVVQPGRSLRLSCAASGFTFSSYGMHWVRQAPGKGLEWVSVISYDGSNKYYADSVKGRFTISRDNSKNTLFLQVNSLRAEDTAVYYCAKEGRTGFDYWGQGTLVTVSS
# VL: DIQMTQSPSSLSASVGDRVTITCRARQGISNYLAWFQQKPGKVPKLLIYAASTLQSGVPSRFSGSGSGTDFTLTISSLQPEDVATYYCQKYNSAPWTFGQGTKVEIK
# notes: as for B1
# B3: Table 1 Line # 3 antibody (BM_Plasma_cell) (antibody, human IgG4, V domains shown)
# VH: EVQLVESGGGLVQPGRSLRLSCAASGFTFDDYAMHWVRQVTGKGLEWVSGINWNSGNIGYADSVRGRFTISRDNAKNSLYLQMNSLRAEDTALYYCAKDSGSSWYGYFDLWGRGTLVTVSS
# VL: DIQMTQSPSTLSASVGDRVTITCRASQSISRWLAWYQQKPGKAPKFLIYKASSLESGVPSRFSGSGSGTEFTLTISSLQPDDFATYYCQQYNSDSRTFGQGTKVEIK
# notes: as for B1
# B4: Candidate ID 16 (antibody, V domains shown)
# VH: EVHLQQSGPDLVKPGASVMISCQASGYSFTAYYINWVKQSPEKSLEWIGEINPGSGGVIYNRKFEAKATLIVDKSSNTAFMLLTRLTSEDSAIYYCARKGFYQFDYWGQGTTLTVSS
# VL: SVVMTQIPKFLVVSAGDRVTITCKASQSVNDGVFWYQQKTGQSPKLVIYHTSNRYTGVSDRFTGSGYGTEFTFTISAVQSEDLAIYFCQQDYTSPLTFGGGTRLEIK
# notes: IgE PCs LN
# B5: IgE mAb 17_2 (antibody, V domains shown)
# VH: B4 VH
# VL: B4 VL
# notes: IgE (IGHE, IGKC) from HDM-exposed mouse, LymphNode
# B6: Table 1 Line # 6 antibody (BM_Plasma_cell) (antibody, human IgG4, V domains shown)
# VH: EVQLVESGGDLVQPGRSLRLSCAASGFTFDDYAMHWVRQAPGKGLEWVSGISWNGNSLGYVDSVKGRFTVSRDNAKNSLYLQMNSLRAEDTALYYCTKDTGSYHSYYGLDVWGQGTTVTVSS
# VL: DIQMTQSPSSLSASVGDRVTITCRASQGIRNDLGWYQQKPGKAPKRLIYAASSLPSGVPSRFSGSGSGTEFTLTISSLQPEDFATYYCLQLNTYPLTFGGGTKVEIK
# notes: as for B1
# B7: IgE mAb 13_2 (antibody, V domains shown)
# VH: EVQLQQSGPELVKPGASVKISCKASGYTFTDYYMNWVKQSHGKSLEWIGDINPNNGGTSYNQKFKGKATLTVDKSSSTAYMELRSLTSEDSAVYYCAYGPPRGPPWFAYWGQGTLVTVSA
# VL: DIVLTQSPASLAVSLGQRATISCRASKSVSTSGYSYMHWYQQKPGQPPKLLIYLASNLESGVPARFSGSGSGTDFTLNIHPVEEEDAATYYCQHSRELPWTFGGGTKLEIK
# notes: as for B5
# B8: IgE mAb 8_2 (antibody, V domains shown)
# VH: QVLLKESGPGLVAPSQSLSITCTVSGFSLTSYGVSWVRQPPGKGLEWLGVIWGDGNTDYHSALISRLSIRKDNSKSQVFLKLNSLQTDDTATYYCAIGSPFAYWGQGTLVTVSA
# VL: DVLMTQTPLSLPVSLGDQVSISCRSSQNIVHSTGNTYLEWYLQKPGQSPKLLIFKVSNRLSGVPDRFSGSGSGTDFTLNISRVEAADLGIYSCFQGSHVPFTFGSGTKLEIK
# notes: IgE (IGHE, IGKC) from HDM-exposed mouse, BoneMarrow
# B9: ab_1 (antibody, V domains shown)
# VH: EVQLVESGGGLEQPGGSLRLSCAGSGFTFSDYAMTWVRQAPGKGLEWVSSISGSGGNTYYADSVKGRFTISRDNSKNTLYLQMNSLRAEDTAVYYCAKDALTIAIRPYYYGLDVWGQGTTVTVSS
# VL: DIVMTQSPLSLPVTPGEPASISCRSSQSLDYSYGYNYLDWYLQKSGQSPQLLIYLASNRASGVPDRFSGSGSGTDFTLKISRVEAEDVGFYYCMQSLSTPYTFGQGTKLEIK
# B10: ab_3 (antibody, V domains shown)
# VH: B9 VH with S30R, A100R, T102S, I103K, A104T
# VL: B9 VL with D30L, Y33T, A56G
# B11: ab_2 (antibody, V domains shown)
# VH: B9 VH with S30R, G56S, K98R, A100R, I103A, I105V
# VL: B9 VL with Y33S, S98Q
# What was measured:
# [1] = molecular target: T3, human IL-4Rα (hIL-4Rα) monomeric protein (human, UniProt P24394 26-232, limits assumed); test: barcoded-antigen count on source cell (scRNA-seq)
# T3 construct: also called hIL-4Rα antigen; barcoded hIL-4Rα
# [2] = molecular target: T3, human IL-4Rα (hIL-4Rα) monomeric protein; test: Biacore (SPR)
# [3] = molecular target: T3, human IL-4Rα (hIL-4Rα) monomeric protein; test: Biacore (SPR); negative log10 of Kd
# Der p 2 [4] = molecular target: T1, Der p 2; test: antigen specificity score against Ole e 1 from barcode counts of single IgE PCs [cont.]
# Protocol: Antigen specificity score (AgSS) for IgG were calculated by subtracting the quantile of hIL-6Rα barcoded UMI counts multiplied by a penalty factor (x) from the quantile of hIL-4Rα barcoded UMI counts, AgSS=Q_hIL-4Rα-Q_hIL-6Rα^x. AgSS for IgE were calculated with a similar formula for mouse and human single cell data. For IgE scores the target antigens were either Der p1, Der p2 or Der f1 and the control was always Ole e1.
# Following processing of the three single-cell libraries, the gene expression and V(D)J region sequencing data were used to subset PCs with a valid IgE constant region and detectable expression of IgE and CD79a but lacking the expression of Ms4a1 and CD19 typically found in non-PC B cells. IgE-expressing PCs were then assessed for differential expression against additional IgA, IgG, and IgM plasma cell isotypes to further characterize the unique transcriptional signature of IgE-secreting PCs. IgE-secreting PCs were then assessed for antigen specificity by comparing the normalized levels of the target antigens, namely, Der p 1, Der p 2, or Der f 1, against the normalized level of the control antigen Ole e 1. This was performed by calculating an empirical score for each target antigen and subtracting the […] with a penalty factor. The formula used to do is set forth below: […]
# Der p 2 [5] = molecular target: T1, Der p 2; test: barcoded antigen sequencing of single IgE PCs with trapped IgE
# Der p 2 [6] = molecular target: T1, Der p 2; test: barcoded antigen sequencing of single IgE PCs with trapped IgE [cont.]
# Description: (§1) The barcoded antigen library was mapped by the CellRanger software to a custom short-read reference that contained the DNA tag sequences of the four barcoded antigens, namely, Der p 1, Der p 2, Der f 1 and Ole e 1. These tag sequences were quantified across all cells and were normalized by taking the centered log-ratio (CLR) per barcoded antigen across each sample capture. In addition, background antigen signal for each barcoded antigen was removed by DSB (Denoised and Scaled by Background). Both the CLR and the DSB normalized values were used to quantify the target antigen signals, namely, those for Der p 1, Der p 2 and Der f 1, against the control signal, namely, that for Ole e 1.
# Der p 2 [7] = molecular target: T1, Der p 2; test: ELISA, coated Der p2
# Protocol: After selecting allergen-specific antibodies, relative binding to Der p 1, Der p 2, and Der f 1 were quantified by ELISA. […] Specifically, binding microtiter plates were coated with 100 μl of 2 μg/mL of natural Der p 1, Der p 2, Der f 1, and Ole e 1 in PBS overnight at 4′C. IgE antibodies were prepared at a concentration of 1 μg/mL and serially diluted three-fold in PBS with 0.5% w/v BSA. After washing with 0.05% v/v Tween® 20 in PBS and blocking in PBS with 0.5% w/v BSA, 100 μl of the diluted IgE antibodies were transferred to the plates and incubated for one hour at ambient temperature. Subsequently, 100 μL of anti-mouse IgE antibody conjugated to horse-radish peroxidase (HRP) diluted at 1:5000 was added. The plates were then incubated for one hour at ambient temperature, and washed in 0.05% v/v/Tween® 20 in PBS. Subsequently, the HRP substrate 3,3′,5,5′-tetramethylbenzidine (TMB) was added. The reaction was stopped (with 100 μL of sulfuric acid 2.0 N) and optical density values determined using a plate reader at 450 nm.
# Ole e 1 [8] = molecular target: T2, Ole e 1; test: barcoded-antigen count on source cell
# Der p 2 [9] = molecular target: T1, Der p 2; test: barcoded-antigen count on source cell
# Der p 2 [10] = molecular target: T1, Der p 2; test: barcode rank score against control Ole e 1
# Ole e 1 [11] = molecular target: T2, Ole e 1; test: centered log-ratio of barcode count
# Description: as §1
# Der p 2 [12] = molecular target: T1, Der p 2; test: centered log-ratio of barcode count
# Description: as §1
# [13] = molecular target: T4, human IL-4 Receptor α (hIL-4Rα) ectodomain (Example 17) (human, UniProt P24394 26-232, AlexaFluor 647 label, or biotin bound to PE-labeled streptavidin tetramer); test: Biacore at +25°C
# T4 construct: extracellular domain; Used as AF647-labelled monomer (5 nM) and as biotinylated ectodomain on SA-PE tetramer; also called hIL-4Rα-AlexaFluor647 (monomeric); hIL-4Rα-biotin-StAv-PE (tetrameric)
# [14] = molecular target: T4, human IL-4 Receptor α (hIL-4Rα) …; test: method not stated
binder,measurement,setting,value
B1,REGN560.L15_ab_raw,[1],4410 counts
same,Kd,[2],23.8 nM
same,negLog10Kd,[3],7.62
B2,REGN560.L15_ab_raw,[1],3180 counts
same,Kd,[2],34.5 nM
same,negLog10Kd,[3],7.46
B3,REGN560.L15_ab_raw,[1],6320 counts
same,Kd,[2],537 nM
same,negLog10Kd,[3],6.27
B4,Antigen Score,Der p 2 [4],0.336
same,Raw Antigen Barcode Count,Der p 2 [5],6
same,Normalized Barcode Count,Der p 2 [6],0.58
B5,binding result,Der p 2 [7],no binding (tested: about 6e-9 M (log10 M about -8.25))
same,Olee1_ab_raw,Ole e 1 [8],3 counts
same,Derp2_ab_raw,Der p 2 [9],6 counts
same,Derp2_ab_rank,Der p 2 [10],0.336
same,Olee1_ab_clr,Ole e 1 [11],0.603
same,Derp2_ab_clr,Der p 2 [12],0.58
B6,REGN560.L15_ab_raw,[1],4140 counts
same,Kd,[2],136 nM
same,negLog10Kd,[3],6.87
B7,Olee1_ab_raw,Ole e 1 [8],1 counts
same,Derp2_ab_raw,Der p 2 [9],46 counts
same,Derp2_ab_rank,Der p 2 [10],0.858
same,Olee1_ab_clr,Ole e 1 [11],0.0287
same,Derp2_ab_clr,Der p 2 [12],1.62
B8,Olee1_ab_raw,Ole e 1 [8],0 counts
same,Derp2_ab_raw,Der p 2 [9],22 counts
same,Derp2_ab_rank,Der p 2 [10],0.837
same,Olee1_ab_clr,Ole e 1 [11],-1.13
same,Derp2_ab_clr,Der p 2 [12],0.655
B9,t1/2 pH7.4,[13],> 116 min
same,Kd,[14],1.68 nM
B10,t1/2 pH7.4,[13],10.6 min
same,Kd,[14],14.2 nM
B11,t1/2 pH7.4,[13],21.7 min
same,Kd,[14],3.26 nM
